Results as given in PMC10659578, “Mechanism of stepwise electron transfer in six-transmembrane epithelial antigen of the prostate (STEAP) 1 and 2” (eLife, 2023).

Biological target: the molecule itself
Test: SEC; purified hSTEAP2 on an SRT-3C SEC-300 column in 20 mM HEPES, 150 mM NaCl, 0.01% LMNG; single peak

B1: Human six-transmembrane epithelial antigen of the prostate 2 (STEAP2) (natural protein)
chain: MESISMMGSPKSLSETFLPNGINGIKDARKVTVGVIGSGDFAKSLTIRLIRCGYHVVIGSRNPKFASEFFPHVVDVTHHEDALTKTNIIFVAIHREHYTSLWDLRHLLVGKILIDVSNNMRINQYPESNAEYLASLFPDSLIVKGFNVVSAWALQLGPKDASRQVYICSNNIQARQQVIELARQLNFIPIDLGSLSSAREIENLPLRLFTLWRGPVVVAISLATFFFLYSFVRDVIHPYARNQQSDFYKIPIEIVNKTLPIVAITLLSLVYLAGLLAAAYQLYYGTKYRRFPPWLETWLQCRKQLGLLSFFFAMVHVAYSLCLPMRRSERYLFLNMAYQQVHANIENSWNEEEVWRIEMYISFGIMSLGLLSLLAVTSIPSVSNALNWREFSFIQSTLGYVALLISTFHVLIYGWKRAFEEEYYRFYTPPNFVLALVLPSIVILGKIILFLPCISRKLKRIKKGWEKSQFLEEGMGGTIPHVSPERVTVM
notes: N-terminal residues 1-27, residues 332-353 and C-terminal residues 470-490 are unresolved in the map, which implies a 490-residue chain; Homotrimer with heme; The cryo-EM sample was in GDN with FAD and NADP+; Residues of the TEV site may remain at the C-terminus after cleavage; also called hSTEAP2; not shown: His6, C-terminal, cleaved
stoichiometry N: 3
